Each block holds one molecule with its values, some of them ahead of it.
Experiments:
EGF (Homo sapiens) = EGF (Homo sapiens) (UniProt P01133); conditions: cited from earlier work
[1] = molecular target: biotinylated HER3 extracellular domain (ECD) (UniProt P21860 20-643, biotin on the C-terminal BirA biotinylation site); test: ELISA
Sequence of biotinylated HER3 extracellular domain (ECD) (P21860 20-643): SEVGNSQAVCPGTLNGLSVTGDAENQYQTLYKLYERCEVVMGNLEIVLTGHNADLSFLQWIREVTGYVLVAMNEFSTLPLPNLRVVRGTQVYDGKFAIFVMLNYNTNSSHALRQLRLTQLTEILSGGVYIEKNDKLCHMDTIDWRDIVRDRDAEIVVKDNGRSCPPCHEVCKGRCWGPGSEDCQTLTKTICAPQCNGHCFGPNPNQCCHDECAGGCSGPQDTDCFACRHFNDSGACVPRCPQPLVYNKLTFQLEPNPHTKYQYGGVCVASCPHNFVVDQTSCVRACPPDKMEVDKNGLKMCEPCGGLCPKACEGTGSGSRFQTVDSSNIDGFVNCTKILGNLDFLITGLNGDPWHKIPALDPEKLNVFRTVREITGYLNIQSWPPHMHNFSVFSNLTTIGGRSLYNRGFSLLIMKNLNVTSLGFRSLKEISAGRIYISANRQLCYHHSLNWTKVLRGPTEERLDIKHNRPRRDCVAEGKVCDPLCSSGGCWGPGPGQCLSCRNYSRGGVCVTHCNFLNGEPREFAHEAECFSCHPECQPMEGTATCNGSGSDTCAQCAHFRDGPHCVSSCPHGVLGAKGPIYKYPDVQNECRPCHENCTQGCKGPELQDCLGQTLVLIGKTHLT

Sequence of EGF (Homo sapiens) (P01133 971-1023): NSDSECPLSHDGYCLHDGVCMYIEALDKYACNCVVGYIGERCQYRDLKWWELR

Molecule: EGFR (from UniProt P00533)
- Kd (EGF (Homo sapiens)): 177 nM

- Kd [1]: 12.6 nM
B1: Heregulin-β1 (Hrgβ1) (ligand)
chain: TSHLVKCAEKEKTFCVNGGECFMVKDLSNPSRYLCKCPNEFTGDRCQNYVMASFYKHLGIEFMEAEELYQK

From article PMC7542843 (ACS Omega, 2020)
